Experiment [1] has as its system BBCEC monolayers. Briefly: Accumulation of ligands in BBCEC monolayers. Format: cell-based, bovine. Conditions: for Accumulation in the cell monolayer of heat denatured ligand compared to normal ligand: ligand boiled 30 mins, 37° C. (FIG. 7). How it is done: FIG. 7 illustrates the results of experiments where the ligands p97, Lf and Tf were heated or not heated prior to the binding study. In all cases, binding experiments were conducted in the transwell apparatus as described previously, with the exception that binding was conducted at either 4° C. or at 37° C. For the 37° C. trial, a separate experiment was conducted where the ligand was boiled for 30 mins then rapidly cooled prior to administration on the transwell plates.
FIG. 13 illustrates the transcytosis and accumulation of p97 and transferrin in BBCEC monolayers. FIG. 13a, Transcytosis experiments were performed at 37° C. (solid bars) or 4° C. (white bars). [^125I]-p97 or bovine [^125I]-holo-transferrin (1 mg/ml) was added to the upper side of the cell-covered filter. At the end of the experiment, radiolabelled proteins were measured in the lower chamber of each well by TCA precipitation (n=4). Controls were also performed at 37° C. with denatured [^125I]-p97 or bovine [^125I]-holo-transferrin boiled for 30 min (grey bars) (n=2); FIG. 13b, Biospecific interaction analysis was performed with native or boiled p97 for the indicated times. MAb L235 (5 μg) was immobilized on a sensor chip (SM5) using standard procedures incorporating NHS, EDC and ethanolamine. Native and boiled p97 (5 to 30 min) diluted at 1 mg/ml in Ringer/Hepes was cooled and injected into the BIAcore. The surface plasmon resonance response obtained for native p97 and boiled p97 was plotted (in relative units (RU)) as a function of time; FIG. 13c, The accumulation of both proteins into BBEC cells were also measured. Briefly, after incubation at 37° C. (solid bars) or 4° C. (white bars) with either [^125I]-protein, cells were washed four times with cold PBS. Accumulation of both denatured proteins (grey bars) was also measured at 37° C. Filters were then removed, and the radioactivity associated with the cells was quantified (n=3).
In all cases, binding experiments were conducted in the transwell apparatus as described previously, with the exception that binding was conducted at either 4° C. or at 37° C. For the 37° C. trial, a separate experiment was conducted where the ligand was boiled for 30 mins then rapidly cooled prior to administration on the transwell plates.

Experiment [2] has as its target LRP (Homo sapiens, UniProt Q07954). Conditions: Tables 1-3; cited from earlier work.
In experiment [3] the target is Megalin (Homo sapiens, UniProt P98164). Conditions: Tables 1-3; cited from earlier work.
The test system of experiment [4] is Megalin. Put plainly: RT-PCR after p97 treatment in U-87 cells: Megalin. The format is cell-based, human. Conditions: 72 hours, RT-PCR (FIG. 35). How it is done:
(§1) FIG. 35. Effect of p97 and RAP treatments in U-87 cells (RT-PCR). Cells (2×10^5) were plated onto six-multiwell microplates and grown at 37° C. under 5% CO2 with optimal culture medium supplemented with serum for 4 days. Treatment was performed in serum free medium for 72 hours. RNA isolation and RT-PCR were performed as described in the Examples. The amplified PCR products were electrophoresed on a 2% agarose gel and visualized under ultraviolet light. (n=2 for p97), (n=1 for RAP)
(§2) FIG. 38. Effect of p97 and RAP treatments in U-87 cells on expression of cubulin (A), P97 (B) and Megalin (C). The amplified PCR products were electrophoresed on a 2% agarose gel and visualized under ultraviolet light. (n=1). Quantification was by densitometry of p97 and RAP treatments on the RNA levels of LRP1B, LRP, LDL-R, cubilin, endogenous p97 and megalin. Results are expressed as ratios of RNA levels between control and treated U-87 cells.
(§3) RNA extraction. Cells in six-wells plate or in 75 cm^2 plastic tissue culture flasks were grown at 37° C. under 5% CO2 with optimal culture medium to 80-90% confluence. Total cellular RNA was preserved in Trizol (Gibco BRL, Burlington, ON). The solution are frozen at −80° C. until extraction. The solution was defroze and mixed with 5:1 chloroform for 3 minutes at room temperature. The suspension was centrifugated at 12000 g at 4° C. […]

For experiment [5], the system named is Cubilin. Briefly: RT-PCR after p97 treatment in U-87 cells: Cubilin. Format: cell-based, human. Conditions: 72 hours, RT-PCR (FIG. 35). As to the method: as §1, §2, §3
Experiment [6] relates to LRP/LRP1B. Briefly: Ligand binding and cross-linking, LRP/LRP1B immunodetection in U-87 cells. More on the design: species or system human. Conditions: 4° C., cross-linked, non-reducing SDS-PAGE (FIG. 29). How it is done:
FIG. 29. […] U-87 cells were grown in monolayer in six-multiwell microplates at 37° C. under 5% CO2. The cell monolayer were incubated at 4° C. with p97 or RAP in Ringer/Hepes solution. After incubation, cell monolayer was washed 3 times with cold-Ringer/Hepes solution and proteins were cross-linked with 1 mM DSS. After, cells were lysed and equal quantities of protein (25 μg) were subjected to SDS-PAGE under non-reducing conditions and electroblotted onto PVDF membranes. […] (n=2).
Ligand-binding. Briefly, cells were incubated with [^125I]-p97 in Ringer/Hepes solution, in presence or in absence of 5 μM cold-P97 for 1 h at 4° C. After incubation, the cell monolayer was washed three times with cold Ringer/Hepes solution. After the ligand binding at 4° C., cell monolayer was washed three times with cold Ringer/Hepes solution and was incubated with DSS (Disuccinimidyl suberate) or Lomant's reagent DSP (Dithiobis(succinimidyl propionate)) from Pierce. After the cross-link, cells were lysed and proteins were separated by SDS-PAGE electrophoresis. Gels were fixed, dryed and exposed to Kodak films at −80° C. for about 3 weeks before developing. The cross-link was performed exactly as the manufacturer's protocol.

Chain of Megalin (Homo sapiens, UniProt P98164) (P98164 26-4655, species assumed): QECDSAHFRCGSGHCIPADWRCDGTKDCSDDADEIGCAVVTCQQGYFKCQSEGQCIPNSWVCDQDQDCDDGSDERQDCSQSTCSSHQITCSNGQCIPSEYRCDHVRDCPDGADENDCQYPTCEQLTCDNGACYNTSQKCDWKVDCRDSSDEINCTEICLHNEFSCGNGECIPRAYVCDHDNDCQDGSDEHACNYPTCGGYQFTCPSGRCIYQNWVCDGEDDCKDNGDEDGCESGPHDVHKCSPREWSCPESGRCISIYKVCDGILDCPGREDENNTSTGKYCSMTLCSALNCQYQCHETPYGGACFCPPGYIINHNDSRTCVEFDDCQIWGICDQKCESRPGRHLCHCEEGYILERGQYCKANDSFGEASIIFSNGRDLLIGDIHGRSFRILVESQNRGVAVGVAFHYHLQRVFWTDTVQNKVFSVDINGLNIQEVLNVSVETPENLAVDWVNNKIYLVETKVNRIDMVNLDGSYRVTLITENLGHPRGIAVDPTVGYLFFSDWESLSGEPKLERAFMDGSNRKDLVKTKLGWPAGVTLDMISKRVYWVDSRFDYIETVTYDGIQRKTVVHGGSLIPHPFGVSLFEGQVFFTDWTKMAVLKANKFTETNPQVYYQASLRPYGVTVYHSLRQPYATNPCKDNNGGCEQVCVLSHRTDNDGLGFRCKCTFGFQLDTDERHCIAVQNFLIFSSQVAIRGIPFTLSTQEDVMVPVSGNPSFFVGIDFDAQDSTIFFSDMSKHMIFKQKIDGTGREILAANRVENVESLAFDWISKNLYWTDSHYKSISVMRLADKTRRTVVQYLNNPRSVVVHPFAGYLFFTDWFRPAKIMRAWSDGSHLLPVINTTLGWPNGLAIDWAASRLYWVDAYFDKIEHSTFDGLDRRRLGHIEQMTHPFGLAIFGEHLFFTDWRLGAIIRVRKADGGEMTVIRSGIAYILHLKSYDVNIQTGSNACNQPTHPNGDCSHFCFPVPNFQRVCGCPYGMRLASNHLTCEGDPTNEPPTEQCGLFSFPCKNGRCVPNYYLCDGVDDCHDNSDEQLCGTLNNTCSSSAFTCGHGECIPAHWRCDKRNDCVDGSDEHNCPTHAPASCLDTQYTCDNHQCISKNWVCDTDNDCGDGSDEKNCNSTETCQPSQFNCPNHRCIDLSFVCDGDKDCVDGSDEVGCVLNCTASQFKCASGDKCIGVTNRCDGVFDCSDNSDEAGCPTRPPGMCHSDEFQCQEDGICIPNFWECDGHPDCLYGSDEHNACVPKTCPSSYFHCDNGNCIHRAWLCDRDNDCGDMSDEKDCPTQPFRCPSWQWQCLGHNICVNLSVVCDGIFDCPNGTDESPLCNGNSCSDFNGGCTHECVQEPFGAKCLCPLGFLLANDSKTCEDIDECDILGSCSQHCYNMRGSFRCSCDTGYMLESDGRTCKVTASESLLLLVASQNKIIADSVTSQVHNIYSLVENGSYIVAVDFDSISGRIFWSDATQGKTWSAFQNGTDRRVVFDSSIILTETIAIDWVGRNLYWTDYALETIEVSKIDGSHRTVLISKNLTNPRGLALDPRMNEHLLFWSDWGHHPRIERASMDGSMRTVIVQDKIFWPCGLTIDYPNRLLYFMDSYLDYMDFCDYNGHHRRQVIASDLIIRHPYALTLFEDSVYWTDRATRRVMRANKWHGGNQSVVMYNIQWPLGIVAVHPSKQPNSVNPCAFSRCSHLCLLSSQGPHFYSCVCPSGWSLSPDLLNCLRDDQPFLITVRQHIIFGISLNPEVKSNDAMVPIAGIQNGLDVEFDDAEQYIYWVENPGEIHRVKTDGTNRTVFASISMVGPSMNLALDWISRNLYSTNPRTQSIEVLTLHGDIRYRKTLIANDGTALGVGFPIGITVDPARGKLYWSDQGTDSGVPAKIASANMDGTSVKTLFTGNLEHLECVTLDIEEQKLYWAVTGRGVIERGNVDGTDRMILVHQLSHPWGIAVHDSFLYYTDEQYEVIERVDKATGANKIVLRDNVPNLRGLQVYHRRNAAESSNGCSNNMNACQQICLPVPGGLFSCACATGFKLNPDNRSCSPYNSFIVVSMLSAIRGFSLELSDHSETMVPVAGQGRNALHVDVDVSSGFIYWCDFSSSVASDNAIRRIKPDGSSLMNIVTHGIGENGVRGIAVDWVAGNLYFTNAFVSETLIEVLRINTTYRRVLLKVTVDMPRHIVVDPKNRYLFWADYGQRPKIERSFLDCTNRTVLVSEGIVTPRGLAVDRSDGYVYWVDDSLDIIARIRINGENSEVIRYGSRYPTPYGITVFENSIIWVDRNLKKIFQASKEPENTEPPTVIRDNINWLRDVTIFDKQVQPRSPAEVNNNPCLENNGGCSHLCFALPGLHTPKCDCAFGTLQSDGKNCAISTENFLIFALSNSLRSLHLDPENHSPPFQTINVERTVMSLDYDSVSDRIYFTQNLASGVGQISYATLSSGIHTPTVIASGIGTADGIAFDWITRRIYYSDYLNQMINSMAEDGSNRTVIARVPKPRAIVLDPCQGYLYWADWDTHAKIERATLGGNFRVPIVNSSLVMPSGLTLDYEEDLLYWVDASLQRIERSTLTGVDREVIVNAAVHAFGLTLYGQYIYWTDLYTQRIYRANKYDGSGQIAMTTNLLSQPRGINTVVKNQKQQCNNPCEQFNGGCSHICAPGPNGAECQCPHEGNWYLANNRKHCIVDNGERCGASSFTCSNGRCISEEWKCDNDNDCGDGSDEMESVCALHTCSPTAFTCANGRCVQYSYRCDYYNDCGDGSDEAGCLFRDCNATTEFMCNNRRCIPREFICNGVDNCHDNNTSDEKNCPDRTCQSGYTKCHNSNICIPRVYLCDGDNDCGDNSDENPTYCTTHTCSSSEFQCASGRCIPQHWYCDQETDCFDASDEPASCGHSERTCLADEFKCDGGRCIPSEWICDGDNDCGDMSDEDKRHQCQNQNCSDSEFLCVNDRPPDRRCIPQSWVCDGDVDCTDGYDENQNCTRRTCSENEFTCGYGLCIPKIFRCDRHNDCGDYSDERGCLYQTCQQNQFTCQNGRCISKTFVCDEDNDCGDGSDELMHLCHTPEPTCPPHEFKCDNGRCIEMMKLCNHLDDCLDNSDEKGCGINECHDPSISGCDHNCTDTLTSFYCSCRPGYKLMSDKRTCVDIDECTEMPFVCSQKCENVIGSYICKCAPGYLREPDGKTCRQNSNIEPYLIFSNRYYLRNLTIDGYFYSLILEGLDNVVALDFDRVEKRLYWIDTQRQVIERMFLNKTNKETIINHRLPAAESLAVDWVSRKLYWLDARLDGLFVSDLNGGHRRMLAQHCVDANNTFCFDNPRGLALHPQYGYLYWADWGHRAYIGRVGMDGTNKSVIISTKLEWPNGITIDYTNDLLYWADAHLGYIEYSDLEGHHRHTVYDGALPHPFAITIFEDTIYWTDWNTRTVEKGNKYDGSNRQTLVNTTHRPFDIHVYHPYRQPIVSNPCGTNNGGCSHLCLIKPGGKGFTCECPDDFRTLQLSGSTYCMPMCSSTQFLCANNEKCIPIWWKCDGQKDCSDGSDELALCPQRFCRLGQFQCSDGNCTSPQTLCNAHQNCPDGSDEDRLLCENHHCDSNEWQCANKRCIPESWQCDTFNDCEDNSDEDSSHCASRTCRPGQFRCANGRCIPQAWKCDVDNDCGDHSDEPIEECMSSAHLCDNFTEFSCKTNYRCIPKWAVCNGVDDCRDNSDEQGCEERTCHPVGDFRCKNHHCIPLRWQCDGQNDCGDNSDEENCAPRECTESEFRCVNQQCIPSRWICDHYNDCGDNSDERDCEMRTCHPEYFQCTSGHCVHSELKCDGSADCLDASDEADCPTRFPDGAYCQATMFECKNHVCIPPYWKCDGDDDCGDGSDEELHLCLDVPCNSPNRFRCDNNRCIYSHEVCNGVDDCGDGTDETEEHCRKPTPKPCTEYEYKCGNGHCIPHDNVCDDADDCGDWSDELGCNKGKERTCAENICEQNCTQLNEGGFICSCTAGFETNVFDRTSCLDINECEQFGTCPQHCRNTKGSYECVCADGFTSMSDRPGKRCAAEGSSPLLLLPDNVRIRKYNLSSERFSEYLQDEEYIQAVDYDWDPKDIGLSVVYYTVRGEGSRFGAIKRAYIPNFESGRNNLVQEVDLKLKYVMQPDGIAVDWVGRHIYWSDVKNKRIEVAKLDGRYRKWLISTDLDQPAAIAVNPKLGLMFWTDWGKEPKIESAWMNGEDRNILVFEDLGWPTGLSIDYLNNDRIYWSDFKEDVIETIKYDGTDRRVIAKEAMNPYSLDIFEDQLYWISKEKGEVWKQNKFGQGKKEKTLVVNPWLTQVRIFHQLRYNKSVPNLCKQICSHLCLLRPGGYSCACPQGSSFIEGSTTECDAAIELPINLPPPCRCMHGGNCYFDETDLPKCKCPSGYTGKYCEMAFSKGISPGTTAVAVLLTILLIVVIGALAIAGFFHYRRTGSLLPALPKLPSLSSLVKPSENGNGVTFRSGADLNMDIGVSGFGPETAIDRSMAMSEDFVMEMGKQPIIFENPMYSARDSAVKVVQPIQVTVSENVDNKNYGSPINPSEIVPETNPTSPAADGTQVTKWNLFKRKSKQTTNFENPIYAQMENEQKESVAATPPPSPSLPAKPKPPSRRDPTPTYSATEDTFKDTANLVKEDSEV

B1: lactoferrin: lactoferrin (Lf), LRP ligand used as competitor (protein, UniProt P02788 20-710, looked up)
Lactotransferrin: GRRRSVQWCAVSQPEATKCFQWQRNMRKVRGPPVSCIKRDSPIQCIQAIAENRADAVTLDGGFIYEAGLAPYKLRPVAAEVYGTERQPRTHYYAVAVVKKGGSFQLNELQGLKSCHTGLRRTAGWNVPIGTLRPFLNWTGPPEPIEAAVARFFSASCVPGADKGQFPNLCRLCAGTGENKCAFSSQEPYFSYSGAFKCLRDGAGDVAFIRESTVFEDLSDEAERDEYELLCPDNTRKPVDKFKDCHLARVPSHAVVARSVNGKEDAIWNLLRQAQEKFGKDKSPKFQLFGSPSGQKDLLFKDSAIGFSRVPPRIDSGLYLGSGYFTAIQNLRKSEEEVAARRARVVWCAVGEQELRKCNQWSGLSEGSVTCSSASTTEDCIALVLKGEADAMSLDGGYVYTAGKCGLVPVLAENYKSQQSSDPDPNCVDRPVEGYLAVAVVRRSDTSLTWNSVKGKKSCHTAVDRTAGWNIPMGLLFNQTGSCKFDEYFSQSCAPGSDPRSNLCALCIGDEQGENKCVPNSNERYYGYTGAFRCLAENAGDVAFVKDVTVLQNTDGNNNEAWAKDLKLADFALLCLDGKRKPVTEARSCHLAMAPNHAVVSRMDKVERLKQVLLHQQAKFGRNGSDCPDKFCLFQSETKNLLFNDNTECLARLHGKTTYEKYLGPQYVAGITNLKKCSTSPLLEACEFLRK
With B1, the “Accumulation of Lf compared with p97 at the end of the experiment” value in experiment [1] (FIG. 7) is given as “almost twice as high”. In addition, the “Accumulation in the cell monolayer of heat denatured ligand compared to normal ligand” value in experiment [1] is given as “significantly lower accumulation”. The “Binding to LRP” value in experiment [2] is “Yes”. Also, the “Binding to Megalin” value in experiment [3] is listed as “Yes”.

B2: p97: recombinant human melanotransferrin (p97), provided by Synapse Technologies (protein, UniProt P08582 20-709, looked up)
Melanotransferrin: GMEVRWCATSDPEQHKCGNMSEAFREAGIQPSLLCVRGTSADHCVQLIAAQEADAITLDGGAIYEAGKEHGLKPVVGEVYDQEVGTSYYAVAVVRRSSHVTIDTLKGVKSCHTGINRTVGWNVPVGYLVESGRLSVMGCDVLKAVSDYFGGSCVPGAGETSYSESLCRLCRGDSSGEGVCDKSPLERYYDYSGAFRCLAEGAGDVAFVKHSTVLENTDGKTLPSWGQALLSQDFELLCRDGSRADVTEWRQCHLARVPAHAVVVRADTDGGLIFRLLNEGQRLFSHEGSSFQMFSSEAYGQKDLLFKDSTSELVPIATQTYEAWLGHEYLHAMKGLLCDPNRLPPYLRWCVLSTPEIQKCGDMAVAFRRQRLKPEIQCVSAKSPQHCMERIQAEQVDAVTLSGEDIYTAGKTYGLVPAAGEHYAPEDSSNSYYVVAVVRRDSSHAFTLDELRGKRSCHAGFGSPAGWDVPVGALIQRGFIRPKDCDVLTAVSEFFNASCVPVNNPKNYPSSLCALCVGDEQGRNKCVGNSQERYYGYRGAFRCLVENAGDVAFVRHTTVFDNTNGHNSEPWAAELRSEDYELLCPNGARAEVSQFAACNLAQIPPHAVMVRPDTNIFTVYGLLDKAQDLFGDDHNKNGFKMFDSSNYHGQDLLFKDATVRAVPVGEKTTYRGWLGLDYVAALEGMSSQQC
As for B2, in experiment [4], the “Expression of the Megalin receptor” value is listed as “not”. Besides, the “Accumulation in the cell monolayer of heat denatured ligand compared to normal ligand” value in experiment [1] is listed as “significantly lower accumulation”. The “Accumulation in BBCE cells” value in experiment [1] (native proteins (FIG. 13c)) worked out at 5.7 μg/cm2. Moreover, the “Expression of the Cubilin receptor” value in experiment [5] is recorded as “induces the expression”. In experiment [6], the “Association with LRP/LRP1B” value is recorded as “high molecular weight dissociable complex”.

Values taken from patent US7977317B2, “Compositions and methods for modulating blood-brain barrier transport” (Raptor Pharmaceutical Inc., priority 2001, dated 2011).
